{"source": "paper PMC5561080", "about": "“The Gαi-GIV binding interface is a druggable protein-protein interaction” (Scientific Reports, 2017)", "molecules": {"B1": {"name": "fluorescein-labeled GIV 1671–1705 peptide (peptide)", "peptide": "{5,6‑carboxyfluorescein}-KTGSPGSEVVTLQQFLEESNKLTSVQIKSSSQENL", "notes": "Made on MBHA resin, which would leave a C-terminal amide; also called fluorescently-labeled GIV peptide; source: synthetic peptide (Boc-SPPS, RP-HPLC purified)"}, "B2": {"name": "fluorescently-labeled GIV 1671–1701 peptide (peptide)", "peptide": "{5,6‑carboxyfluorescein}-KTGSPGSEVVTLQQFLEESNKLTSVQIKSSS", "notes": "Made on MBHA resin, which would leave a C-terminal amide; source: synthetic peptide (Boc-SPPS, RP-HPLC purified)"}, "B3": {"name": "GST-GIV 1671–1755 (domain or fragment, human, UniProt Q3V6T2-3 1671-1755, looked up)", "chain": "KTGSPGSEVVTLQQFLEESNKLTSVQIKSSSQENLLDEVMKSLSVSSDFLGKDKPVSCGLARSVSGKTPGDFYDRRTTKPEFLRP", "notes": "source: E. coli BL21(DE3), purified (Glutathione Agarose)"}, "B4": {"name": "fluorescein-labeled GIV 1671–1689 peptide (peptide)", "peptide": "{5,6‑carboxyfluorescein}-KTGSPGSEVVTLQQFLEES-NH2", "notes": "as for B2"}, "B5": {"name": "unlabeled GIV 1671–1701 peptide (peptide)", "peptide": "KTGSPGSEVVTLQQFLEESNKLTSVQIKSSS", "notes": "as for B2"}, "B6": {"name": "human His-GIV-CT (1660–1870) (domain or fragment, UniProt Q3V6T2-3 1660-1870, looked up)", "chain": "SETLESRHHKIKTGSPGSEVVTLQQFLEESNKLTSVQIKSSSQENLLDEVMKSLSVSSDFLGKDKPVSCGLARSVSGKTPGDFYDRRTTKPEFLRPGPRKTEDTYFISSAGKPTPGTQGKIKLVKESSLSRQSKDSNPYATLPRASSVISTAEGTTRRTSIHDFLTKDSRLPISVDSPPAAADSNTTAASNVDKVQESRNSKSRSREQQSS", "notes": "also called His-tagged GIV 1660–1870; source: E. coli BL21(DE3), purified (HisPur Cobalt resin, dialysed against PBS)"}, "B7": {"name": "untagged rat Gαi3 (natural protein, UniProt P08753 1-354, looked up)", "chain": "MGCTLSAEDKAAVERSKMIDRNLREDGEKAAKEVKLLLLGAGESGKSTIVKQMKIIHEDGYSEDECKQYKVVVYSNTIQSIIAIIRAMGRLKIDFGEAARADDARQLFVLAGSAEEGVMTSELAGVIKRLWRDGGVQACFSRSREYQLNDSASYYLNDLDRISQTNYIPTQQDVLRTRVKTTGIVETHFTFKELYFKMFDVGGQRSERKKWIHCFEGVTAIIFCVALSDYDLVLAEDEEMNRMHESMKLFDSICNNKWFTDTSIILFLNKKDLFEEKIKRSPLTICYPEYTGSNTYEEAAAYIQCQFEDLNRRKDTKEVYTHFTCATDTKNVQFVFDAVTDVIIKNNLKECGLY", "notes": "from a pET28b plasmid containing a thrombin cleavage site; also called untagged Gαi3; unlabeled Gαi3; source: E. coli BL21(DE3); rat His-Gαi3 cleaved with agarose-immobilized thrombin, passed over HisPur Cobalt beads, gel filtration (Superdex S200)"}, "B8": {"name": "GST-GIV 1671–1705 (domain or fragment, human)", "chain": "KTGSPGSEVVTLQQFLEESNKLTSVQIKSSSQENL", "notes": "limits not spelled out in the text for this one; also called GST-fused GIV truncation construct of 35 amino acids; source: purified"}, "B9": {"name": "fluorescein-labeled GIV 1671–1696 peptide (peptide)", "peptide": "{5,6‑carboxyfluorescein}-KTGSPGSEVVTLQQFLEESNKLTSVQ-NH2", "notes": "as for B2"}}, "key": {"rat GST-Gαi3 [1]": {"biological_target": "T1, rat GST-Gαi3 (Rattus norvegicus, UniProt P08753)", "T1 construct": "gene Gnai3", "T1 sequence (Q3V6T2 1660-1870 partner, one chain of several)": "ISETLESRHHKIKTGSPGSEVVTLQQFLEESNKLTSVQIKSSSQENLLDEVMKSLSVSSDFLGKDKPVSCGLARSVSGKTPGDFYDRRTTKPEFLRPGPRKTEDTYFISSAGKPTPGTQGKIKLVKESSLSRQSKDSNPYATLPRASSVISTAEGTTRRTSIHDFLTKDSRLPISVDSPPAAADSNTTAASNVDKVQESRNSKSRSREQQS", "assay": "AlphaScreen protein-protein binding inhibition", "settings": "displacement of His-GIV-CT 1660-1870 (75 nM each protein); GDP 30 µM, 5 mM MgCl2, pH 7.4, room temperature"}, "rat His-Gαi3 [2]": {"biological_target": "T2, rat His-Gαi3 (Rattus norvegicus, UniProt P08753)", "T2 construct": "gene Gnai3", "assay": "fluorescence polarization competition", "assay_type": "binding"}, "rat GST-Gαi3 [3]": {"biological_target": "T1, rat GST-Gαi3", "assay": "AlphaScreen protein-protein binding inhibition", "settings": "displacement of His-GIV-CT 1660-1870 (75 nM each protein); GDP 30 µM, 5 mM MgCl2, pH 7.4, room temperature", "remark": "listed apart in the source"}, "human Gαi3": {"biological_target": "T3, human Gαi3 (Homo sapiens, UniProt P08754)", "T3 construct": "gene GNAI3", "T3 sequence (P08754 whole entry)": "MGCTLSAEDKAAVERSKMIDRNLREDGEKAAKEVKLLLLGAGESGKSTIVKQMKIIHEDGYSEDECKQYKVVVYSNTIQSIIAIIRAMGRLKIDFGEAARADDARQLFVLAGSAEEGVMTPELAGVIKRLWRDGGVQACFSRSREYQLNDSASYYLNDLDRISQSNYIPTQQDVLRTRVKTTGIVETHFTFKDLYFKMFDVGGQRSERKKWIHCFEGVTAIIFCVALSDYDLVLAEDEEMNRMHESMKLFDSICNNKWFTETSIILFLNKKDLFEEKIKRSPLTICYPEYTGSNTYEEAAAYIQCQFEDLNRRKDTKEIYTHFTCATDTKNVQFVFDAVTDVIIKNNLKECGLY", "assay": "1H-15N TROSY NMR titration, chemical shift perturbation", "assay_type": "binding", "settings": "GDP-bound, pH 7.0, 30 °C, 10 mM MgCl2; site SwII/α3/W258 region"}, "rat His-Gαi3 [4]": {"biological_target": "T4, rat His-Gαi3 (rat, UniProt P08753 1-354)", "T4 construct": "GDP-loaded in the buffers; Pull-down and FP methods name the rat protein; also called purified His-Gαi3; source: E. coli BL21(DE3), purified (HisPur Cobalt resin, buffer exchange on HiTrap Desalting)", "assay": "fluorescence polarisation; fluorescently-labeled GIV peptide 25 nM, rat His-Gαi3 titrated 0.125–10 µM, room temperature; 50 mM Tris-HCl pH 7.4, 100 mM NaCl, 0.4% NP-40, 10 mM MgCl2, 5 mM EDTA, 2 mM DTT, 30 µM GDP; one-site binding model", "settings": "both partners purified"}, "rat His-Gαi3 [5]": {"biological_target": "T5, rat His-Gαi3 (rat, UniProt P08753 1-354)", "T5 chain": "B7 chain", "assay": "FP"}, "rat His-Gαi3 [6]": {"biological_target": "T4, rat His-Gαi3", "assay": "fluorescence polarisation; competition: His-Gαi3 1 µM with fluorescently-labeled GIV 1671–1701 25 nM and increasing unlabeled GIV peptide or His-GIV-CT (0.5–20 µM); buffer with 30 µM GDP", "settings": "both partners purified"}, "rat His-Gαi3 [7]": {"biological_target": "T4, rat His-Gαi3", "assay": "pull-down; 10 µg GST or GST-GIV (~1.25 µM) immobilised on glutathione agarose beads; rat His-Gαi3 0.1–5 µM, 4 h at 4 °C; 50 mM Tris-HCl pH 7.4, 100 mM NaCl, 0.4% NP-40, 10 mM MgCl2, 5 mM EDTA, 2 mM DTT, 30 µM GDP; SDS-PAGE, Coomassie blue", "settings": "both partners purified"}, "rat GST-Gαi3 [8]": {"biological_target": "T6, rat GST-Gαi3 (rat, UniProt P08753 1-354)", "T6 construct": "source: E. coli BL21(DE3), purified (Glutathione Agarose, buffer exchange on HiTrap Desalting)", "assay": "AlphaScreen or HTRF; His-GIV-CT on nickel-chelate donor beads, GST-Gαi3 on glutathione acceptor beads; 25–100 nM each (75 nM chosen), 10 and 5 µg/ml beads; 50 mM Tris-HCl pH 7.4, 100 mM NaCl, 0.4% NP-40, 5 mM MgCl2, 2 mM DTT, 30 µM GDP; room temperature, 2.5 h", "settings": "both partners purified"}, "[9]": {"biological_target": "B6", "assay": "AlphaScreen or HTRF; competition: 75 nM His-GIV-CT and 75 nM GST-Gαi3 on beads with increasing untagged Gαi3 in solution; buffer with 30 µM GDP; one-site sigmoidal inhibition curve", "settings": "both partners purified"}}, "note": "Read-outs that look alike come from different tables or passages of the source. No end group written: not given here. 5,6‑carboxyfluorescein = 5,6-carboxyfluorescein"}
{"molecule": "Cc1ccc(C(=O)Nc2ccc(S(=O)(=O)O)c3cc(S(=O)(=O)O)cc(S(=O)(=O)O)c23)cc1NC(=O)c1cccc(NC(=O)Nc2cccc(C(=O)Nc3cc(C(=O)Nc4ccc(S(=O)(=O)O)c5cc(S(=O)(=O)O)cc(S(=O)(=O)O)c45)ccc3C)c2)c1", "note": "[suramin]", "values": [{"measurement": "AlphaScreen protein-protein binding inhibition", "setting": "rat GST-Gαi3 [1]", "value": "suramin is a less potent inhibitor than NF023 in the same AlphaScreen"}, {"measurement": "IC50", "setting": "rat His-Gαi3 [2]; read-out: IC50", "value": "~50", "unit": "µM"}]}
{"molecule": "O=C(Nc1cc(C(=O)Nc2ccc(S(=O)(=O)O)cc2S(=O)(=O)O)cc(C(=O)Nc2ccc(S(=O)(=O)O)cc2S(=O)(=O)O)c1)Nc1cc(C(=O)Nc2ccc(S(=O)(=O)O)cc2S(=O)(=O)O)cc(C(=O)Nc2ccc(S(=O)(=O)O)cc2S(=O)(=O)O)c1", "note": "[NF449]", "values": [{"measurement": "IC50", "setting": "rat His-Gαi3 [2]; displacement of fluorescein-GIV 1671-1701 peptide (25 nM), GDP 30 µM, 10 mM MgCl2, pH 7.4, room temperature", "value": "NF449 inhibits Gαi3-GIV binding with a potency similar to that of NF023"}]}
{"molecule": "O=C(O)C1=CC(=C(c2ccc(O)c(C(=O)O)c2)c2ccc(O)c(C(=O)O)c2)C=CC1=O", "note": "[ATA]", "values": [{"measurement": "IC50", "setting": "rat His-Gαi3 [2]; read-out: IC50", "value": "~5", "unit": "µM"}, {"measurement": "% inhibition at 10 μM", "setting": "rat GST-Gαi3 [3]", "value": "ATA and NF023 efficiently inhibited Gαi3-GIV binding as determined by AlphaScreen"}]}
{"molecule": "O=C(Nc1cccc(C(=O)Nc2ccc(S(=O)(=O)O)c3cc(S(=O)(=O)O)cc(S(=O)(=O)O)c23)c1)Nc1cccc(C(=O)Nc2ccc(S(=O)(=O)O)c3cc(S(=O)(=O)O)cc(S(=O)(=O)O)c23)c1", "note": "[NF023]", "values": [{"measurement": "IC50", "setting": "rat His-Gαi3 [2]; read-out: IC50", "value": "~5", "unit": "µM"}, {"measurement": "% inhibition at 10 μM", "setting": "rat GST-Gαi3 [3]", "value": "ATA and NF023 efficiently inhibited Gαi3-GIV binding as determined by AlphaScreen"}, {"measurement": "1H-15N TROSY NMR titration, chemical shift perturbation", "setting": "human Gαi3", "value": "revealed significant Chemical Shift Perturbations (CSP) in only a fraction"}]}
{"molecule": "B1", "values": [{"measurement": "Kd", "setting": "rat His-Gαi3 [4]", "value": "~0.5", "unit": "µM"}, {"measurement": "Kd", "setting": "rat His-Gαi3 [5]", "value": 0.56, "unit": "µM"}]}
{"molecule": "B2", "values": [{"measurement": "binding result", "setting": "rat His-Gαi3 [6]", "value": "binds"}, {"measurement": "Kd", "setting": "rat His-Gαi3 [5]", "value": 0.46, "unit": "µM"}]}
{"molecule": "B3", "values": [{"measurement": "binding result", "setting": "rat His-Gαi3 [7]", "value": "binds"}]}
{"molecule": "B4", "values": [{"measurement": "Kd", "setting": "rat His-Gαi3 [4]", "value": "~1", "unit": "µM"}]}
{"molecule": "B5", "values": [{"measurement": "binding result", "setting": "rat His-Gαi3 [6]", "value": "binds"}]}
{"molecule": "B6", "values": [{"measurement": "binding result", "setting": "rat GST-Gαi3 [8]", "value": "binds"}, {"measurement": "binding result", "setting": "rat His-Gαi3 [6]", "value": "binds"}]}
{"molecule": "B7", "values": [{"measurement": "IC50", "setting": "[9]", "value": "~1", "unit": "µM"}]}
{"molecule": "B8", "values": [{"measurement": "binding result", "setting": "rat His-Gαi3 [7]", "value": "binds"}]}
{"molecule": "KTGSPGSEVVTLQQFLEESNKLTSVQIKSSS (domain or fragment, human, source: purified)", "note": "[GST-fused GIV 1671–1701]", "values": [{"measurement": "binding result", "setting": "rat His-Gαi3 [7]", "value": "binds"}]}
{"molecule": "KTGSPGSEVVTLQQFLEESNKLTSVQ (domain or fragment, human, source: purified)", "note": "[GST-GIV 1671–1696]", "values": [{"measurement": "binding result", "setting": "rat His-Gαi3 [7]", "value": "binds"}]}
{"molecule": "KTGSPGSEVVTLQQFLEES (domain or fragment, human, source: purified)", "note": "[GST-GIV 1671–1689]", "values": [{"measurement": "binding result", "setting": "rat His-Gαi3 [7]", "value": "binds"}]}
{"molecule": "B9", "values": [{"measurement": "Kd", "setting": "rat His-Gαi3 [4]", "value": "~0.65", "unit": "µM"}]}
